This is an account of results in the DeepSol protein solubility set.

A short description of this series: soluble on expression in E. coli; label from the status in PepcDB or PDB records.
In the case of “LNKTLFLGYAFLLTMATTSDKLASRSKLPDGPTGSSEEEEEFLEIPPFNKQYTESQLRAGAGYILEDFNEAQCNTAYQCLLIADQHCRTRKYFLCLASGIPCVSHVWVHDSCHANQLQNYRNYLLPAGYSLEEQRILDWQPRENPFQNLKVLLVSDQQQNFLELWSEILMTGGAASVKQHHSSAHNKDIALGVFDVVVTDPSCPASVLKCAEALQLPVVSQEWVIQCLIVGERIGFKQHPKYKHDYVSH”, the “soluble on expression in E. coli” value is “soluble”. For “MGSDKIHHHHHHMIIEHARDMLKRERLFFDKIQAHIGEVNGTISIGCSSLIGQTLLPEVLSLYNSQFPNVEIQVQVGSTEQIKAHHRDYHVMITRGNKVMNLSNTHLFNDEHYFIYPKDRKEDVTKLPFIEFQADPIYINQIKQWYNDHLGHDYHATITVDQVATCKEMLLSGVGVTILPKIMMKNIDKNMFEFEKVTIDKKPLIRSTYMSYDASMLQLPQVDAFVNLMLNFIR”, the “soluble on expression in E. coli” value is “not soluble”. With “MAHHHHHHMGTLEAQTQGPGSMREVLVPYAGVSPSVDSTAFIAGNARIIGDVCIGKNASIWYGTVLRGDVDKIEVGEGTNIQDNTVVHTDSMHGDTVIGKFVTIGHSCILHACTLGNNAFVGMGSIVMDRAVMEEGSMLAAGSLLTRGKIVKSGELWAGRPAKFLRMMTEEEILYLQKSAENYIALSRGYL”, the “soluble on expression in E. coli” value is listed as “soluble”. Consider “MGSDKIHHHHHHMLDLGCGDGTLLHYLRDKLDIHGYGVEIDAHNILACMKNGINVIQNDLEAGLSEFEGESFDYVILSQTLQAMKNTEYIIREMLRVGKEGIVSFPNFGYWKNRIQVAGGHMPVSPTLPYQWYDTPNVHLCTLHDFEQLCQQHRVNILERRVMNNDKKVTFLPNLFGILAFYRFSHAA”, for which the “soluble on expression in E. coli” value is given as “not soluble”.

As for “MAGIAMKLAKDREAAEGLGSHERAIKYLNQDYETLRNECLEAGALFQDPAFPPVSHSLGFKELGPNSSKTYGIKWKRPTELLSNPQFIVDGATRTDICQGALGDSWLLAAIASLTLNETILHRVVPYGQSFQEGYAGIFHFQLWQFGEWVDVVVDDLLPTKDGKLVFVHSAQGNEFWSALLEKAYAKVNGSYEALSGGCTSEAFEDFTGGVTEWYDLQKAPSDLYQIILKALERGSLLGCSINISDIRDLEAITFKNLVRGHAYSVTDAKQVTYQGQRVNLIRMRNPWGEVEWKGPWSDNSYEWNKVDPYEREQLRVKMEDGEFWMSFRDFIREFTKLEICNLTPDALKSRTLRNWNTTFYEGTWRRGSTAGGCRNYPATFWVNPQFKIRLEEVDDADDYDSRESGCSFLLALMQKHRRRERRFGRDMETIGFAVYQVPRELAGQPVHLKRDFFLANASRAQSEHFINLREVSNRIRLPPGEYIVVPSTFEPNKEGDFLLRFFSEKKAGTQELDDQIQANLPDEKVLSEEEIDDNFKTLFSKLAGDDMEISVKELQTILNRIISKHKDLRTNGFSLESCRSMVNLMDRDGNGKLGLVEFNILWNRIRNYLTIFRKFDLDKSGSMSAYEMRMAIEAAGFKLPCQLHQVIVARFADDELIIDFDNFVRCLVRLEILFKIFKQLDPENTGTIQLDLISWLSFSVLGKLAAAIEHHHHHHMHYSNIEANESEEERQFRKLFVQLAGDDMEVSATELMNILNKVVTRHPDLKTDGFGIDTCRSMVAVMDSDTTGKLGFEEFKYLWNNIKKWQGIYKRFETDRSGTIGSNELPGAFEAAGFHLNQHIYSMIIRRYSDETGNMDFDNFISCLVRLDAMFRAFRSLDKNGTGQIQVNIQEWLQLTMYS”, the “soluble on expression in E. coli” value is listed as “soluble”. The same measure for “MVKAISTEKDLLLKVDKSFPWETFRSKLKSLYSKKPKWNVISLLKVLLIKLIFDISWNNLEGEIRDSKMFMDFLGGKIPPKSTVFSFYKKLQQTVIQEGETMRTTLMDELNKALDKAISEYREKGFELEVGREKKTEKVSKGTYPPKIDTFLPVKPYPREKRSLSKTGSLEHHHHHH”: “soluble”. The same measure for “MSLIGVIGVKRNVDIAIREKLALYPKKHKKYVGELLNSFKEVVILNTCNRTEIYFNCTEEISEDEIFDKIFNVFNWNDDLKKYMFLSKEKRAVTHLMEVICGFHSRILGEDQILGQIKGAYKTAISDNSISSELQKMFEIAIACGKKFKTECKMFEVPVSSVSISINSALLKGCRKFMVLGYGEIGKLAIKHLLSHKVECIYLIVRDKSKASDLEGEIVEVLDFNEKNQVINEIDCIVSCTAAPHTVVRNEDIKTEGETIHIYDLAVPRDVDKELSEKERVILKDIDEISKIDDKNKKIRKERMEEYKHIVEESIDEFLNWLKIREVSSKIRNIKIRENEICSERIKTFSNKGNGENAKLAERMIKSTADAYVNRAIELLKSEALKGSDSYCAEIIEKIFLTEGHHHHHH”: “soluble”; for “MLIYISLIMKMERLSMVILELYQNDYSKDLVAFDSIEDGKAFVAQIPGYTLETEDGFEVEYFNPKNIPDYMEIIFNGNIVPLSKFMFDPEENVNIIWKEISNLSLKNDRVIEGYSKIDAYVVNNHEVKAYVETRETNYRKAKDFLESRGYEIDRSFFGSEDGEAILYRKKGIEVWHFLCHLDPMFVEIEDVEGYVKEEVGEIQ”: “not soluble”.

As for “MTQDYRVLLYYQYVPIEDGETFAQKHLADCKELGLKGRILVADEGINGTVSGTIEQTNAYMELMKNDPRFSSTIFKIDEAEQNAFKKMHVRYRPELVNLSLEDDVNPLELTGAYLDPKEFREAMLDENTVVIDARNDYEFDLGHFRGAIRPEIRSFRELPQWIRDNKEQFMEKRVLTYCTGGIRCEKFSGWLVREGFKDVGQLHGGIATYGKDPEVQGDLWDGQMYVFDSRIAVPINQKEHVIVGRDWFDGSPCERYINCGNPECNRQMLASEENEAKYLGACSHECRVHPNNRYIKAHQLSNQEVQERLALLEKDLASLEHHHHHH”, the “soluble on expression in E. coli” value was “soluble”. Turning to “MSTPDDPVIHSPPSIGAAPGMNGYHGSGVKLEESSGACGSPDDGLLDSSEESRRRQKTCRVCGDHATGYNFNVITCESCKAFFRRNALRPKEFKCPYSEDCEINSVSRRFCQKCRLRKCFTVGMKKEWILNEEQLRRRKNSRLNNTGTCNKRSQPGNQQSPQGPNQQPHLSPHHPGVAIYPPQPQRPLTINPMDNQMMHHMQANRPNAMPQLISPPGAQPYPLTSPVGSSASDSPPNRSLTMMHNGEKSPDGYDPNIMAHRAPPPSFNNRPKMDSGQVVLSTEEYKQLLSRIPGAQVPGLMNEEEPINKRAAYNCNGHPMPAETTPPYSAPMSDMSLSRHNSTSSGTEKNHMTHSTVSAIPGNSAQNHFDIASFGMGIVTATGGGDAAEEMYKRMNMFYENCIQSALDSPENQEPKPQEAMIPKEEYMTPTHGFQYQSDPYQVPPAERNINYQLNAAELKALDAVREAFYGMDDPMEQGRQMQSFLKANKTPADIMNIMDVTMRRFVKVAKGVPAFREVSQEGKFSLLKGGMIEMLTVRGVTRYDASTNSFKTPTIKGQNVSVNVDDMFAKLNANAQAQKAKCLEFFGFFDEEIKKNELAVYLVMLAVLFSVRSDPPMNENDVRIVTERHNHFMSLLNRYLESLFGEQARRIFERIPKALGLLNEIARNAGMLFMGTVRSGEAEELPGEFFKIK”, the “soluble on expression in E. coli” value is recorded as “not soluble”. The same measure for “MKNEMLALILAGGQGTRLGKLTQSIAKPAVQFGGRYRIIDFALSNCANSGIHNVGVVTQYQPLALNNHIGNGSSWGLDGINSGVSILQPYSASEGNRWFEGTSHAIYQNIDYIDSVNPEYVLILSGDHIYKMDYDDMLQSHKDNNASLTVAVLDVPLKEASRFGIMNTDANNRIVEFEEKPAQPKSTKASMGIYIFDWQRLRNMLVAAEKSKVGMSDFGKNVIPNYLESGESVYAYEFSGYWKDVGTIESLWEANMEYISPENALDSRNRQWKIYSRNLISPPNFLGANAHVEDSLVVDGCFVDGTVKHSILSTGAQVREGAEVLDSVIMSGAIIGQGAKIKRAIIGEGAIISDGVEIDGTDEVQVVGYNEVVGVATDED”: “not soluble”. “MAHHHHHHMLQSPKGINILITGTPGTGKTSLAELLAQELGDFKHVEVGKIVKENHFYSEYDNALDTHIVEEDDEDRLLDFMEPMMVNEGNHVVDYHSSELFPRRWFHLVIVLRASTEVLFERLTARRYSEQKRDENMEAEIQGLCEEEARGAYDDSIVIVRENNTLEEMAATVDLIRLRVESLRGNAA”: the “soluble on expression in E. coli” value was “not soluble”. The same measure for “MGSHHHHHHSQDPMMSRLKTAVYDYLNDVDITECTEMDLLCQLSNCCDFINETYAKNYDTLYDIMERDILSYNIVNIKNTLTFALRDASPSVKLATLTLLASVIKKLNKIQHTDAAMFSEVIDGIVAEEQQVIGFIQKKCKYNTT”: “soluble”.
